{"source": "the nanobody polyreactivity screen of Harvey et al. (2022)"}
{"assay": "yeast display, Sf9 membrane polyspecificity reagent, FACS + sequencing; frameworks hold sequencing errors", "method_in_brief": "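A synthetic nanobody library was expressed on Saccharomyces cerevisiae BJ5465 by galactose induction for 36–48 hours. The library was stained for 1 hour at 4 °C with 10% biotinylated, detergent-solubilized Sf9 membrane reagent and enriched with streptavidin microbeads before FACS. Low and high (top ~1%) gates were set on anti-HA fluorescence for expression and streptavidin fluorescence for reagent binding, and each polyreactivity label reflects the gate of origin.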"}
{"sequence": "QVQLVESGGGLVQAGGSLRLSCAAPGIIFVDYTMGWYRQAPGKERELVAAIDWSGGSTYYADSVKGRFTISRDNAKNTVYLQMNSLKPEDTAVYYCAALKTTYIYSSDFDYWGQGTQVTVSS", "polyreactivity (PSR sort gate)": "low polyreactivity"}
{"sequence": "QVQLVESGGGLVQAGGSLRLSCAAPGSIFPRYAMGWYRPAPGKERELVAAISRSGGSTYYADSVKGRFTISRDNAKNTVYLQMNSLKPEDTAVYYCATDKVSHRRYDYWGQGTQVTVSS", "polyreactivity (PSR sort gate)": "high polyreactivity"}
{"sequence": "QVQLVESGGGLVQAGGSLRLSCAAPGSTFQFNVMGWYRQAPGKERELVAAITSGASTYYADSVKGRFTISRDNAKNTVYLQMYSLEPEDTAVYYCAVDYSFLYDYVQRYYYWGQGTQVTVSS", "polyreactivity (PSR sort gate)": "high polyreactivity"}
{"sequence": "QVQLVESGGGLVQAGGSLRLSCAASACTFNVNAMGWYRQEAGKERELVAAITNGGITNYADSVKGRFTISRDNAKNTVYLQMNSLKPEDTAVYDCAARTIYKTQSPRPFRRGYWGQGTQVTVSS", "polyreactivity (PSR sort gate)": "high polyreactivity"}
{"sequence": "QVQLVESGGGLVQAGGSLRLSCAASAFIFGRYVMGWYIQAPGKEREVVAAISWSGGRTYYADSVKGRFTISRDNAKNTVYLQMNSLKPEDTAVYYCAAESSYPSYDGYYWGQGTQVTVSS", "polyreactivity (PSR sort gate)": "high polyreactivity"}
{"sequence": "QVQLVESGGGLVQAGGSLRLSCAASAFILASYPMGWNRQAPGKERELVAAITKRGGSTYYADSVKGRFTISRDNAKNTVFLQMNSLKPEDTAVYFCATYSSTVLPRWKYYYWGQGTQVPVSS", "polyreactivity (PSR sort gate)": "high polyreactivity"}
{"sequence": "QVQLVESGGGLVQAGGSLRLSCAASAFILDWNTIGWYRQAPRKEREFVAAITSRGGDTYYADSVKGRFTISRDNAKNTDYFQMNSMKPEDTAVYYWNKGFKLWPRYGYDYWGLGTQVTVSS", "polyreactivity (PSR sort gate)": "low polyreactivity"}
{"sequence": "QVQLVESGGGLVQAGGSLRLSCAASAFILYRNAMGWYRQAPGKERELVAAITWNGDRTHYADSVMGRFTISRDNAKNTVYLQMNSLKPEDNAVYYCAAYYVSVRGGRYRNKWYDHWGQGTQVTVSS", "polyreactivity (PSR sort gate)": "high polyreactivity"}
{"sequence": "QVQLVESGGGLVQAGGSLRLSCAASALTFGSNAMGWYRQAPGKERELVAAISRSGGTTYYADSVKGRFTISRDNAKNTVYLQMNSLKPEDTAVYYCATRPYSPWRHYYWGQGTQVTVSS", "polyreactivity (PSR sort gate)": "high polyreactivity"}
{"sequence": "QVQLVESGGGLVQAGGSLRLSCAASARIFIVNAMGWYRQAPGKDREFVAANTSRGGITYYADSVKGRFTISRDNAKNTVYLQMNSLKPEDTAVYYCAAGYITCGSGNWVVTPYDYWGQGTQVTVSS", "polyreactivity (PSR sort gate)": "high polyreactivity"}
{"sequence": "QVQLVESGGGLVQAGGSLRLSCAASARIFTAYAMGWYRQAPGKERELVASISTSGGRTYYADSVKGRFTISRDNAKNTVYLQINSLKPEDTAVYYFAADFESYSRYYDGYDYWGQGTQVTVSS", "polyreactivity (PSR sort gate)": "high polyreactivity"}
{"sequence": "QVQLVESGGGLVQAGGSLRLSCAASARIVRKYTMGWFRQAPGKERELVAAISRNGGDTYYADSVKGRFTISRDNAKNTVYLQMHSLKPEDTAVYYCNARTPTDSTHFDYWGQGTQVTVSS", "polyreactivity (PSR sort gate)": "low polyreactivity"}
{"sequence": "QVQLVESGGGLVQAGGSLRLSCAASARTFRQYAMGWYRQSPGKERELVAAIRTNGGRTYYADSVKGRFTISRDNAKNTVYLQMNSLKPEDTAVYYCAVRPRPGYYYWGQGTQVTVSS", "polyreactivity (PSR sort gate)": "high polyreactivity"}
{"sequence": "QVQLVESGGGLVQAGGSLRLSCAASARTFYYYAMGWYRQAPGKERELVAAISWSGGRTYYADSVKGRFTISRDNAKNTVYLQMNSLKPEDTAVYYFAVPYPAEGYGGDYWGQGTQVTVSS", "polyreactivity (PSR sort gate)": "low polyreactivity"}
{"sequence": "QVQLVESGGGLVQAGGSLRLSCAASASIFDDNAMGWYRQAPGKERELVAGISRGGSTNYADSVKGRFTISRDNAKNTVYLQMNSLKPEDTAVYYCNKRYKPSWTTYDYWGQGTQVTVSS", "polyreactivity (PSR sort gate)": "low polyreactivity"}
{"sequence": "QVQLVESGGGLVQAGGSLRLSCAASASIFDGYAMGWYRQAPGKERELVAAISKGGTRTYYADSVKGRFTISRDNAKNTVYLQMNSLKPEDSSVYYCNAYYRREPDDGDYDYWGQGTQVTVSS", "polyreactivity (PSR sort gate)": "high polyreactivity"}
{"sequence": "QVQLVESGGGLVQAGGSLRLSCAASASTFWFNVMGWYRQATGKETELDAVITWTGGSTSYADSVKGRFTISRDNAKNTVYLQMNSLKPEDTAVYYCATPVKFGGVPYRYGYWGQGTQVTVSS", "polyreactivity (PSR sort gate)": "low polyreactivity"}
{"sequence": "QVQLVESGGGLVQAGGSLRLSCAASAYILFKYAKGSYRQAPGKERELVAGITRGGTTYYADSVKGRFTISRDNAKNTVYLQMNSLKPEDTAVYYCAVAITFSSYKFYYWGQGTQVTVSS", "polyreactivity (PSR sort gate)": "high polyreactivity"}
{"sequence": "QVQLVESGGGLVQAGGSLRLSCAASAYNFDGYAMGWYRQAPGKERELVAAINSGGGTYYADSVKGRFTISRDNAKNTVYLQMNSLKPEDTAVYYCAKYTYDYWGQGTQVTVSS", "polyreactivity (PSR sort gate)": "low polyreactivity"}
{"sequence": "QVQLVESGGGLVQAGGSLRLSCAASGATFAQYAMGWYRQAPGKERELVAAISRGGGSTYCADSVKGRFTISRDNAKNTVYLQMNSLKPEDTAVYYCAADPRYRVTLGFDYWGQGSQVTVSS", "polyreactivity (PSR sort gate)": "high polyreactivity"}
{"sequence": "QVQLVESGGGLVQAGGSLRLSCAASGATFYVYAMGWYRQAPGKERELVAAIRYRGGTTHYADSVKGRFTISRDNAKNTVYVQMNSLKPEDTAVYYCAADGYVYRSGRRYDYWGQGTQVTVSS", "polyreactivity (PSR sort gate)": "high polyreactivity"}
{"sequence": "QVQLVESGGGLVQAGGSLRLSCAASGCTFKYYTMGWYRQAPGKERELGAAINWRGGTTYYADSVKGRFTISRDNAKNTVYLQMNSLKPEDTAVYYSAKVNGPYRGGGYSRFDYWGQGTQVTVST", "polyreactivity (PSR sort gate)": "high polyreactivity"}
{"sequence": "QVQLVESGGGLVQAGGSLRLSCAASGFAFSHYAMGWYRQAPGKERELVAAISWGGGSTYYADSVKGRFTISRDNAKNTVYLQMNSLRPEDTAVYYCAASIWLRYHWGYDYWGQGTQVTVSS", "polyreactivity (PSR sort gate)": "high polyreactivity"}
{"sequence": "QVQLVESGGGLVQAGGSLRLSCAASGFAFSYYAMGWYRQAPGKEREFVASIDWSGGSTYYADSVKGRFTISRDNAKNTVFLQMNSLKPEDTAVYYCAAELDYFPGYDYWGQGTQVTVSS", "polyreactivity (PSR sort gate)": "low polyreactivity"}
{"sequence": "QVQLVESGGGLVQAGGSLRLSCAASGFFFEINAMGWYRQAPGKERELVAVITNSGGSTYYADSVKGRFTISRDNAKNTVYLQMNSLKPEDTAVYYCAADAVHYTNDWYDYWGQGTQVTVSS", "polyreactivity (PSR sort gate)": "low polyreactivity"}
{"sequence": "QVQLVESGGGLVQAGGSLRLSCAASGFFFSHYAMGWYRQAPGKERVFVATISKRGGSTTYADSVKGRFTISRDNAKNTVYLQMNSLKPEDTAVYYCAATYYRFPSLIAYVRYDYWGQGTQVTVSS", "polyreactivity (PSR sort gate)": "high polyreactivity"}
{"sequence": "QVQLVESGGGLVQAGGSLRLSCAASGFIDYDNAMGWYRQAPGKERELVAAITSGGSTYYADSVKGRFTISRDNAKNTVYLQMNSLKPEDTAVYYCARESGYRAYEIQFYYWGQGTQVTVSS", "polyreactivity (PSR sort gate)": "high polyreactivity"}
{"sequence": "QVQLVESGGGLVQAGGSLRLSCAASGFIFAANAMGWYRQAPGKEMELVARIRSTGRTSYADSVKGRFTISRDNAKNTVYLQMNSLKPEDTAVYYCATDYYRYRDYAYYWLDYNYWGQGTQVTVSS", "polyreactivity (PSR sort gate)": "high polyreactivity"}
{"sequence": "QVQLVESGGGLVQAGGSLRLSCAASGFIFADYAMGWYRQAPGKERELVAAITGRGTSTYYEDSVKGRFTISRDNAKNTVYLQMNSLKPEDTAVYLCAAAGTYYRHYKGYYRHLDYWGQGTQVTVSS", "polyreactivity (PSR sort gate)": "high polyreactivity"}
{"sequence": "QVQLVESGGGLVQAGGSLRLSCAASGFIFAEYAMGWSRQAPGQEREFVATINIGGSTYYADSVKGRFTISRDNAKNTVYLQMNSLKPEDTAVYYCAAEFWWGDGSQGIYDYDYWGQGTQVTVSS", "polyreactivity (PSR sort gate)": "low polyreactivity"}
{"sequence": "QVQLVESGGGLVQAGGSLRLSCAASGFIFAFYDIGWYRQAPGKERELVAAISWGGSTYYADSVKGRFTISRDNAKNTVYLQMNSLKPEDTAVYYCAARLSRSYRYGYWGQGTQVTVSS", "polyreactivity (PSR sort gate)": "high polyreactivity"}
{"sequence": "QVQLVESGGGLVQAGGSLRLSCAASGFIFAGNAMGWYRQAPGKERELVAAISGSGGSTYYADSVKGRFTISRDNAKNTVYLQMNSLKPEDTAVYYCNAVYYRYYDVEGFDYWGQGTQVTVSS", "polyreactivity (PSR sort gate)": "high polyreactivity"}
{"sequence": "QVQLVESGGGLVQAGGSLRLSCAASGFIFAGYPMGWYRQAPGKERELVAGITRNGGSTYYADSVKGRFTISRDNAKNTVYLQMNSLKPEDPAVYYCAATRYSFGPRRVDYWGQGTQVTVSS", "polyreactivity (PSR sort gate)": "high polyreactivity"}
{"sequence": "QVQLVESGGGLVQAGGSLRLSCAASGFIFAGYTMGWSRPAHGKERELVAAIRSSGGRTYYADSVKGRFTISRDNAKNTVYLQMYSMKPEDTAVDYCNAVVDRLIFWQFDYWGQGTQVTVSS", "polyreactivity (PSR sort gate)": "high polyreactivity"}
{"sequence": "QVQLVESGGGLVQAGGSLRLSCAASGFIFAKYAMGWYRQAPGKERELVAAITSGGSTNYADSVKGRFTISRDNAKNTVYLQMNSLKPEDTAVYYCNRGFDWWYRYRHYDYWGQGTQVTVSS", "polyreactivity (PSR sort gate)": "low polyreactivity"}
{"sequence": "QVQLVESGGGLVQAGGSLRLSCAASGFIFANYAKGWYRPAPGKERELVAAISSGGITYYADSVKGRFTISRDNAKNTVYLQMNSRKPEDTAVYYCACDVRYQDRSGEYHHWDGDYWGQGTQVTVTS", "polyreactivity (PSR sort gate)": "low polyreactivity"}
{"sequence": "QVQLVESGGGLVQAGGSLRLSCAASGFIFANYAMGWYRQAPGKERELVAAISTSGSSTYYADSVKGRFTISRDNAKNTVYLQMNSLKPEDTAVYYCNTYLTIWGYFYGYDYWGQGTQVTVSS", "polyreactivity (PSR sort gate)": "high polyreactivity"}
{"sequence": "QVQLVESGGGLVQAGGSLRLSCAASGFIFAQNAMGWYRQAPGKERELVAAISGSGGRTYYADSVKGRFTISRDNAKNTVYLQMNSLKPEDTAVYYCAAQSFSGYWGQGTQVTVSS", "polyreactivity (PSR sort gate)": "high polyreactivity"}
{"sequence": "QVQLVESGGGLVQAGGSLRLSCAASGFIFARNAMGWYRQAPGKERELVARITKRGGSTFYADSVKGRFTISRDNAKNTVYLQMNSLKPEDPAVYYCNADGYHGHVEGDYWGQGTQVTVSS", "polyreactivity (PSR sort gate)": "high polyreactivity"}
{"sequence": "QVQLVESGGGLVQAGGSLRLSCAASGFIFARYAMGWYRQAPGKERELVASITRRGGSTYYADSVKGRFTISRDNAKNTVYLQMNSLKPEDTAVYYCARPNLLSGDYWGQGTQVTVSS", "polyreactivity (PSR sort gate)": "high polyreactivity"}
{"sequence": "QVQLVESGGGLVQAGGSLRLSCAASGFIFASYAMGWYRQAPGKERELVAAISWRGGSTYYADSVKGRFTISRDNAKNTVYLQMNSLKPEDTAVYYCKAYVYVGTGRGYDTLDYWGQGTQVTVSS", "polyreactivity (PSR sort gate)": "low polyreactivity"}
{"sequence": "QVQLVESGGGLVQAGGSLRLSCAASGFIFATNAMGWYRQAPGKERELGASISSGDNTNYADSVKGRFTISRDNAKNTVYLQMNSLKPEHTAVYYCAAANKGPDQADYHYDQWGEYEYWGQGTQVTVSS", "polyreactivity (PSR sort gate)": "low polyreactivity"}
{"sequence": "QVQLVESGGGLVQAGGSLRLSCAASGFIFATYAMGWYRQAPGKERELVAAISRRGVRTNYADSVKGRFTISRDNAKNTVYLQMNSLKQEDTAVYYCNAQSHYGKIPMYYWGQGTQVTVSS", "polyreactivity (PSR sort gate)": "high polyreactivity"}
